Experimental findings from publication PMC11996858, “Cathepsin K cleavage of angiopoietin-2 creates detrimental Tie2 antagonist fragments in sepsis” (The Journal of Clinical Investigation, 2025) are described below.

The data set concerns the molecule itself. Kind of data set: non-reducing SDS-PAGE with Western blot; recombinant ANGPT2 incubated with CM-Mq^Veh or CM-Mq^LPS (serum-free conditioned media of RAW264.7 cells), then SDS-PAGE under nonreducing conditions against reduced conditions (10% beta-mercaptoethanol) and Western analysis for ANGPT2.

The stoichiometry N is the number of molecules, sites or subunits per partner or assembly.

Where only a bound is given, the exact number is not on record here.

B1: recombinant human angiopoietin-2, full length (ligand, UniProt O15123 19-496, looked up)
chain: YNNFRKSMDSIGKKQYQVQHGSCSYTFLLPEMDNCRSSSSPYVSNAVQRDAPLEYDDSVQRLQVLENIMENNTQWLMKLENYIQDNMKKEMVEIQQNAVQNQTAVMIEIGTNLLNQTAEQTRKLTDVEAQVLNQTTRLELQLLEHSLSTNKLEKQILDQTSEINKLQDKNSFLEKKVLAMEDKHIIQLQSIKEEKDQLQVLVSKQNSIIEELEKKIVTATVNNSVLQKQQHDLMETVNNLLTMMSTSNSAKDPTVAKEEQISFRDCAEVFKSGHTTNGIYTLTFPNSTEEIKAYCDMEAGGGGWTIIQRREDGSVDFQRTWKEYKVGFGNPSGEYWLGNEFVSQLTNQQRYVLKIHLKDWEGNEAYSLYEHFYLSSEELNYRIHLKGLTGTAGKISSISQPGNDFSTKDGDNDKCICKCSQMLTGGWWFDACGPSNLNGMYYPQRQNTNKFNGIKWYYWKGSGYSLKATTMMIRPADF
notes: angiopoietin-2 (ANGPT2), human, recombinant full-length protein of about 75 kDa (glycosylated); As a secreted recombinant protein it probably lacks the signal peptide (surmised); also called ANGPT2; full-length ANGPT2; source: bought: R&D Systems
Turning to B1, the “stoichiometry N” value is not below 2.
